The target of the experiment is T1, recombinant GST-Gαi3 (Rattus norvegicus, UniProt P08753).
T1 construct: A fusion protein was constructed consisting of full-length Gαi3 and gluthatione S-transferase (GST); made in house; host or cells: Escherichia coli BL21
Put plainly: SPOT peptide dot blot overlay with recombinant GST-Gαi3. The conditions noted are these: spotted 25 mers overlaid with GST-Gαi3 10 μg/ml. The class given is binding. The text has this: FIG. 4 Dot blot analysis of conserved amino acids (core element of SEQ ID No. 1, 2, extended sequences SEQ ID No. 4 and 5) in the Reggai sequence. Spotted peptides containing the Reggai sequence (25 mers) of RIIβ (Reg) (SEQ ID No. 7), its mutant functional variant (SEQ ID No. 8) and non-functional peptides not containing the Reggai core element of SEQ ID No. 1 variant (SEQ ID No. 9 to 15) (exchanged amino acids are underlined) were overlaid with recombinant GST-Gαi3. The box indicates the Reggai sequence. Densitometric analysis of the average of two independent dot blot experiments is shown as bar graph. […] SEQ ID No. 9 to 15 in FIG. 4 (2nd to 7th and 9th sequence) are non-inventive comparative peptides.
Overlapping peptides either of the wild type PKA regulatory subunit RIIβ (accession number: NP_002727) or peptides containing substitutions of conserved amino acids in the Reggai sequence were SPOT-synthesized (Synthetic peptide arrays on membrane supports) on distinct coordinates of a cellulose membrane (shown in FIG. 1c; starting from the N-terminus of RegIIβ with amino acid 1-25 [coordinate A1], amino acid 6-30 [coordinate A2], etc.). […] Interactions were detected with rabbit anti-GST and secondary horseradish peroxidase antibodies by a procedure identical to immunoblotting (IB), (see Stefan et al., J. Am. Soc. Nephrol. 18, 199-212 (2007)). […]

The record followed here is patent US20150005237A1, “PEPTIDIC INHIBITOR OF SIGNAL TRANSMISSION FROM G-ALPHA-S TO G-ALPHA-I-COUPLED RECEPTOR CASCADES” (UNIVERSITÄT INNSBRUCK, priority 2011, published 2015).

T1 sequence (P08753 whole entry, the tested form may be a part): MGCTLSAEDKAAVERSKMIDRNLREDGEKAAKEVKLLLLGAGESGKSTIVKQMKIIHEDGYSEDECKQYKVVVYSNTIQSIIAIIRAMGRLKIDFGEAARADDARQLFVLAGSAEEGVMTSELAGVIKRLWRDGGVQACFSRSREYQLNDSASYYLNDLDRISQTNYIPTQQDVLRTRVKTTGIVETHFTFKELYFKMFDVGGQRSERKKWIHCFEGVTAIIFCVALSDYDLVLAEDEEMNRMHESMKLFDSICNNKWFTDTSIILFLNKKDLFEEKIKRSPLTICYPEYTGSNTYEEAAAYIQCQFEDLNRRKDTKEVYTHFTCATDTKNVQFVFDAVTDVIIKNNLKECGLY

“QGASADSFFIVESGE (listed as Homo sapiens) [SEQ ID No. 8]”: the “binding of spotted peptide to recombinant GST-Gαi3 (dot blot)” value is reported as “functional”.
